Experiments:
[1] = molecular target: Grb2 SH2 (UniProt P62993); test: SH2 binding enrichment of the phosphorylated peptide, bacterial display (enrichment ratio); higher = better substrate or ligand; peptides without Tyr show the background
[2] = molecular target: c-Src SH2; test: as above
[3] = molecular target: SHP2-C SH2; test: as above
[4] = molecular target: Fes (UniProt P07332); test: phosphorylation enrichment, bacterial display (enrichment ratio); higher = better substrate or ligand; peptides without Tyr show the background
[5] = molecular target: Hck (UniProt P08631); test: as above
[6] = molecular target: EPHB1 (UniProt P54762); test: as above
[7] = molecular target: MERTK (UniProt Q12866); test: as above
[8] = test system: c-Src; test: as above
[9] = molecular target: FGFR1 (UniProt P11362); test: as above
[10] = test system: c-Abl (mouse); test: as above
[11] = molecular target: FGFR3 (UniProt P22607); test: as above
[12] = molecular target: Jak2 (UniProt O60674); test: as above
[13] = molecular target: EPHB2 (UniProt P29323); test: as above
[14] = test system: AncSZ; test: as above
[15] = molecular target: Fyn (UniProt P06241); test: as above
[16] = test system: Fer (mouse); test: as above
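For SH2 binding enrichment of the phosphorylated peptide, bacterial display in this document: peptide library displayed on the E. coli surface as eCPX fusions, selected cells deep-sequenced, score is each peptide's frequency after selection divided by its frequency in the input.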
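For phosphorylation enrichment, bacterial display in this document: 11-residue human phosphosite peptides and single-mutation variants displayed on the E. coli surface, counted by deep sequencing, each peptide's frequency after selection divided by its frequency in the unselected input library; frequency after pTyr selection over input frequency; kinase dosed for 20-30% of maximal phosphorylation in three min.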

Sequence of Jak2 (O60674 whole entry, looked up): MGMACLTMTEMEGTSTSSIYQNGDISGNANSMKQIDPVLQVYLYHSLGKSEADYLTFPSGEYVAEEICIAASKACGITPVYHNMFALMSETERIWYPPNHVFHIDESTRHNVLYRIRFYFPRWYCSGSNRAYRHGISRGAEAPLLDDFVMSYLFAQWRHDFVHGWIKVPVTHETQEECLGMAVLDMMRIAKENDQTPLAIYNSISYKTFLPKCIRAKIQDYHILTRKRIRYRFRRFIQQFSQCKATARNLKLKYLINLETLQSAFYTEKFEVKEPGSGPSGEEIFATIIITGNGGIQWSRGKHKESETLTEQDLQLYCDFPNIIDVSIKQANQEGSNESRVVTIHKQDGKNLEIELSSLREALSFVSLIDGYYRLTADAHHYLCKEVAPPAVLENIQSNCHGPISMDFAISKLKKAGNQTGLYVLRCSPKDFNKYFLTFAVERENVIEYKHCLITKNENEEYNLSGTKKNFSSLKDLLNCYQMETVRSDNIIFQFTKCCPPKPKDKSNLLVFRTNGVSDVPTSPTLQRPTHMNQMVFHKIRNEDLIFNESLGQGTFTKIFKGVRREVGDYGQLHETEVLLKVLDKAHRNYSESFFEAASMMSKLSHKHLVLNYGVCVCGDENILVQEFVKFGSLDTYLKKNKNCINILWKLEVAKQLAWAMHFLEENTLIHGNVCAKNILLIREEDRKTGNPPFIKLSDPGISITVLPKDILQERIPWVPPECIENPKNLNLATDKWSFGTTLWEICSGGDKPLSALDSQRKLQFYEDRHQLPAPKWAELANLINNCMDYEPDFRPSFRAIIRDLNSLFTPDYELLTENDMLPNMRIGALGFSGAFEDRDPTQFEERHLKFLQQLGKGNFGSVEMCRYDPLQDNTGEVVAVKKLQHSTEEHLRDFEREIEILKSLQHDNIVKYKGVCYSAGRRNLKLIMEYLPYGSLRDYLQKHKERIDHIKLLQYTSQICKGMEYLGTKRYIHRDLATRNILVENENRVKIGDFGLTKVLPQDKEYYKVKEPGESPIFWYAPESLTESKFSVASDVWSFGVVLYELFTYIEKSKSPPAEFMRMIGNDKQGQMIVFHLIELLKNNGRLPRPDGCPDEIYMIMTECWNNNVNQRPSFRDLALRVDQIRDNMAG
Sequence of Grb2 SH2 (P62993 whole entry, looked up): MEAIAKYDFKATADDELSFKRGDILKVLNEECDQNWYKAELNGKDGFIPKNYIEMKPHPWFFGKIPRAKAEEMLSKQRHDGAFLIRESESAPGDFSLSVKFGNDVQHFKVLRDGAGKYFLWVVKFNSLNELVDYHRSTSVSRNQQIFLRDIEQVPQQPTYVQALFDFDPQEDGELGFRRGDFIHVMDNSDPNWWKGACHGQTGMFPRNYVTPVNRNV
Sequence of EPHB1 (P54762 whole entry, looked up): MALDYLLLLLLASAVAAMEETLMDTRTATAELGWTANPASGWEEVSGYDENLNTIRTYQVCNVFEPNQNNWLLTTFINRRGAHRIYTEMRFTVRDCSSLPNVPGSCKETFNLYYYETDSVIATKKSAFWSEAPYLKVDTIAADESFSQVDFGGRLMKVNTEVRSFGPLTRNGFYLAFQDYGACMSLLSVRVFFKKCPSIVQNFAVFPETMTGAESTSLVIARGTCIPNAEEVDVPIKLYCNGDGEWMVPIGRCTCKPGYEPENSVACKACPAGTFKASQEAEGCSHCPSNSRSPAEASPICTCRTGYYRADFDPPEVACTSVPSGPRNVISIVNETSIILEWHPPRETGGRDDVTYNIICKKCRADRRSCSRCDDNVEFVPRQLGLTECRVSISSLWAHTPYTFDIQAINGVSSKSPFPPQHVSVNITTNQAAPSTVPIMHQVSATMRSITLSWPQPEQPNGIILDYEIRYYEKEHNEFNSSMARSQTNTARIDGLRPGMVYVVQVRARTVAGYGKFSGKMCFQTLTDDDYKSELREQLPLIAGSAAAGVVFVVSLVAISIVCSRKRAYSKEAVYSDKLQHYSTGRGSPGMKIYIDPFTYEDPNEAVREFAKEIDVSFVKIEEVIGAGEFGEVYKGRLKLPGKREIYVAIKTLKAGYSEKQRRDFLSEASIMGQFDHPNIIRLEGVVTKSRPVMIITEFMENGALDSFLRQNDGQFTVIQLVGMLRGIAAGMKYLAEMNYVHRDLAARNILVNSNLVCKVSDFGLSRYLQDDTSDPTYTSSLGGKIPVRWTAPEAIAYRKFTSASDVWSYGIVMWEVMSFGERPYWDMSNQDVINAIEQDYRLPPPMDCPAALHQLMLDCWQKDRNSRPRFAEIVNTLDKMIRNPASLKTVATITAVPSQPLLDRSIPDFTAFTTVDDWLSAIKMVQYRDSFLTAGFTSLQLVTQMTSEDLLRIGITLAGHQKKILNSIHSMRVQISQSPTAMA
Sequence of Fyn (P06241 whole entry, looked up): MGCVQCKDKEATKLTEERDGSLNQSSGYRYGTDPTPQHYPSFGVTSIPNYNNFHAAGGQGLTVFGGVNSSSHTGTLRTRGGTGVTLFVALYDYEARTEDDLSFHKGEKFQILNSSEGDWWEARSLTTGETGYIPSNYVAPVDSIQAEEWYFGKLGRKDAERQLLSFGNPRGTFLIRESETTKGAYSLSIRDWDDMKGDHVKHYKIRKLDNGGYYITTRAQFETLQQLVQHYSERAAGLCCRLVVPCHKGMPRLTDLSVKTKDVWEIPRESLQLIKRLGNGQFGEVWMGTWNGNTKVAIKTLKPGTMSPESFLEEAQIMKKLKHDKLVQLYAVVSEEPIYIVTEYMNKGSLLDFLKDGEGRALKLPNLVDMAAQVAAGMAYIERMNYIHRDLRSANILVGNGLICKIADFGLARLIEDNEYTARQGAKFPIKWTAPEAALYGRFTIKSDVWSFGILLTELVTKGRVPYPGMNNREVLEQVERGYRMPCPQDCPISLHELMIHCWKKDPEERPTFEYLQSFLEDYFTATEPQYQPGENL
Sequence of FGFR3 (P22607 whole entry, looked up): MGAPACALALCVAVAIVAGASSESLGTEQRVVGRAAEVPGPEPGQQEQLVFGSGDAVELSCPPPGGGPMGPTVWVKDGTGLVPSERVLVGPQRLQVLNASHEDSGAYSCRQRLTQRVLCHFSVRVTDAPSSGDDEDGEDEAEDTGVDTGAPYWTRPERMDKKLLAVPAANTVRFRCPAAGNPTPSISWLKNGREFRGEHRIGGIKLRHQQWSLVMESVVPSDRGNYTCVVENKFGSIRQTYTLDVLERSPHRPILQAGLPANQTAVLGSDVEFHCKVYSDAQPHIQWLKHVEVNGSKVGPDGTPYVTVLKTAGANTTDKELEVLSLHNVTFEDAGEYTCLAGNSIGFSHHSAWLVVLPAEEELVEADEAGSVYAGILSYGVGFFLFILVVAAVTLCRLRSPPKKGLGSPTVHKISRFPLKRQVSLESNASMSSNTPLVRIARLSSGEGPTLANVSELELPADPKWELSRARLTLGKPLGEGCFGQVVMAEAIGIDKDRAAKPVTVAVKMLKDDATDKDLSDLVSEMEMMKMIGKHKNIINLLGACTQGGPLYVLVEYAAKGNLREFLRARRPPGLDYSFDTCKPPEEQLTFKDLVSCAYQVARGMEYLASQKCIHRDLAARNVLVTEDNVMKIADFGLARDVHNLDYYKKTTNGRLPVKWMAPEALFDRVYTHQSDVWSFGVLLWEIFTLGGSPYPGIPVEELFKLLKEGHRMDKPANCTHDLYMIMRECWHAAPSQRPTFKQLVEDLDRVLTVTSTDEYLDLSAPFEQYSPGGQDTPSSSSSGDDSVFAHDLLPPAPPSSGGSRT
Sequence of FGFR1 (P11362 whole entry, looked up): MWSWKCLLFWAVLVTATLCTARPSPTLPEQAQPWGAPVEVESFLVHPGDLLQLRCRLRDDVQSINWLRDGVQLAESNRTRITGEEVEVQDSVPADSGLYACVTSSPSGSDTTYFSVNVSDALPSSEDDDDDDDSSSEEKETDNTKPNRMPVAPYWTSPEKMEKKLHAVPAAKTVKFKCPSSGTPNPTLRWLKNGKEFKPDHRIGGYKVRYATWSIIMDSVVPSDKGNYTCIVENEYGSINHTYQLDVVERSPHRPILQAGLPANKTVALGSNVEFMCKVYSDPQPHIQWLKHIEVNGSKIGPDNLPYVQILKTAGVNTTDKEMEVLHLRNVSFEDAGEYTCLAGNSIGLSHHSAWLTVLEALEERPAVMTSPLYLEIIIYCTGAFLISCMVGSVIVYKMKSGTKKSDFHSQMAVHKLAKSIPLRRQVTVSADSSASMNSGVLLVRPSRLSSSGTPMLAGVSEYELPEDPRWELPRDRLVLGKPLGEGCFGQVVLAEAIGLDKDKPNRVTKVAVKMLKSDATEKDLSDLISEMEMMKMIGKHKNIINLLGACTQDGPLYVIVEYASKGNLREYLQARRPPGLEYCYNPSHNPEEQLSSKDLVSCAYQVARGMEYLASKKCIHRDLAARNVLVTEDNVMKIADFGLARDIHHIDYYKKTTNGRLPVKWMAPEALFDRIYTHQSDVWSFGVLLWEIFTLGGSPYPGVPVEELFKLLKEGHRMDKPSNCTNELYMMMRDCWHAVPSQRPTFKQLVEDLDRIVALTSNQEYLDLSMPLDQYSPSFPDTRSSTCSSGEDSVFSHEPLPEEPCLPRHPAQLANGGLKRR
Sequence of Hck (P08631 whole entry, looked up): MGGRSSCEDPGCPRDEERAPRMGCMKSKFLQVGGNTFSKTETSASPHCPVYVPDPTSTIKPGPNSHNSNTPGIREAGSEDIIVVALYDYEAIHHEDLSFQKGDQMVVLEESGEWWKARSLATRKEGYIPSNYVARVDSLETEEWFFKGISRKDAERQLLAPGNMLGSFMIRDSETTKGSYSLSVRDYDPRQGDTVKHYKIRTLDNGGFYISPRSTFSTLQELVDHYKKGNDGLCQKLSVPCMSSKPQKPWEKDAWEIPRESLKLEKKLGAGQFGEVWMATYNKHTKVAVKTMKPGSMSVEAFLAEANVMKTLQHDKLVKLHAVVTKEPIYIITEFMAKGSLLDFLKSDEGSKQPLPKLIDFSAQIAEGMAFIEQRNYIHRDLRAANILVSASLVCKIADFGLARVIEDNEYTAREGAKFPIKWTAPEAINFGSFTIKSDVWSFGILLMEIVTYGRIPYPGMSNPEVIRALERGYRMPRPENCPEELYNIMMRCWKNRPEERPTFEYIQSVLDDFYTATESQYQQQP

Row | Sequence | SH2 binding enrichment [1] | SH2 binding enrichment [2] | SH2 binding enrichment [3] | phosphorylation enrichment [4] | phosphorylation enrichment [5] | phosphorylation enrichment [6] | phosphorylation enrichment [7] | phosphorylation enrichment [8] | phosphorylation enrichment [9] | phosphorylation enrichment [10] | phosphorylation enrichment [11] | phosphorylation enrichment [12] | phosphorylation enrichment [13] | phosphorylation enrichment [14] | phosphorylation enrichment [15] | phosphorylation enrichment [16]
1 | VVHSSYDEIEG [SEC24A_Y263] | 1.03 | 36.8 | 0.87 | 1.12 | 0.475 | 0.51 | 0.429 | 0.442 | 0.493 | 0.713 | 0.648 | 0.892 | 0.549 | 1.04 | 0.498 | 0.492
2 | WAFNLYDINKF [KCNIP3_Y174_D179Y_YF] | 0.905 | 0.519 | 0.731 | 1.26 | 3.36 | 2.22 | 3.37 | 1.61 | 0.497 | 0.662 | 0.669 | 0.933 | 3.11 | 1.02 | 2.08 | 4.81
3 | WDLSEYSYKDP [ITGA3_Y237] | 0.932 | 0.878 | 0.704 | 0.998 | 0.673 | 0.424 | 0.416 | 0.916 | 0.513 | 0.614 | 0.631 | 0.997 | 0.568 | 1.85 | 0.914 | 0.449
4 | WLFFRYLPIGC [ATP2A2_Y836_A838P] | 1.26 | 0.796 | 1.36 | 1.3 | 0.477 | 0.529 | 0.415 | 0.345 | 0.538 | 0.657 | 0.778 | 1.14 | 0.531 | 1.29 | 0.38 | 0.559
5 | WVYNHYRWFIW [BRCA2_Y2624_I2627F] | 0.966 | 0.666 | 0.733 | 1.24 | 0.403 | 0.506 | 0.418 | 0.433 | 0.406 | 0.777 | 0.667 | 1.15 | 0.466 | 1.12 | 0.441 | 0.49
6 | YARECYSALPQ [SARS2_Y52_G51C] | 0.74 | 0.776 | 0.753 | 0.972 | 3.13 | 0.712 | 1.7 | 0.676 | 2.42 | 0.716 | 1.57 | 0.666 | 0.868 | 1.16 | 0.636 | 0.663
7 | YFCRWYRNRKS [EREG_Y144] | 0.716 | 0.571 | 0.623 | 0.635 | 0.741 | 0.621 | 0.889 | 0.753 | 0.61 | 0.714 | 0.515 | 0.683 | 0.572 | 0.864 | 0.618 | 0.478
8 | YGAHKYHPLPV [OAT_Y55_N54K] | 1.65 | 1.36 | 1.74 | 0.892 | 0.787 | 0.371 | 0.442 | 0.562 | 0.444 | 0.498 | 0.403 | 0.557 | 0.39 | 0.657 | 0.611 | 1.08
9 | YGMQLYQNYMH [GRB14_Y347] | 6.36 | 1.6 | 1.22 | 1.02 | 4.84 | 9.11 | 3.75 | 3.97 | 0.888 | 1.2 | 0.909 | 0.727 | 12.4 | 1.11 | 4.92 | 8.99
10 | YGMSSYITRED [FNDC3B_Y180_T179S] | 0.764 | 0.472 | 0.669 | 0.844 | 0.431 | 0.545 | 0.544 | 0.51 | 0.529 | 0.645 | 0.696 | 0.697 | 0.452 | 0.819 | 0.423 | 0.524
11 | YHLLPYTVRAM [PARS2_Y93] | 1.15 | 5.37 | 1.81 | 0.913 | 8.34 | 2.32 | 9.72 | 3.84 | 16.5 | 24.6 | 13.9 | 6.87 | 1.47 | 1.28 | 3.04 | 0.595
12 | YIILIYAMKKK [SLCO1B1_Y645] | 2.34 | 2.04 | 2.86 | 0.511 | 0.53 | 0.486 | 0.416 | 0.363 | 0.331 | 0.426 | 0.692 | 0.451 | 0.348 | 0.588 | 0.514 | 0.399
13 | YPLELYERVRM [PRKCG_Y312] | 1.02 | 1.11 | 0.83 | 1.25 | 1.65 | 2.02 | 0.432 | 0.699 | 0.481 | 0.632 | 0.622 | 1.25 | 1.18 | 1.19 | 0.518 | 3.71
14 | YQLPYYNMVPS [BMPR1A_Y458] | 11.4 | 5.08 | 1.73 | 0.802 | 3.28 | 2.58 | 8.84 | 5.1 | 13.1 | 3.96 | 10.5 | 10.4 | 2.52 | 2.75 | 3.36 | 5.67
15 | YRNKPYISWPS [CDC42BPB_Y1638_S1633Y] | 1.87 | 1.29 | 1.64 | 0.635 | 0.606 | 0.45 | 0.449 | 0.522 | 0.394 | 0.401 | 0.46 | 0.697 | 0.461 | 0.547 | 0.41 | 0.394
16 | YRTPGYREVVI [TNS2_Y673_A670T] | 0.941 | 0.753 | 1.03 | 0.721 | 0.341 | 0.358 | 0.472 | 0.465 | 0.42 | 1.23 | 0.447 | 0.587 | 0.453 | 0.799 | 0.425 | 0.399
17 | YSGIYYKPESL [L2HGDH_Y103_H98Y] | 0.831 | 6.04 | 10.5 | 0.968 | 8.46 | 9.38 | 10.9 | 6.07 | 11 | 29.5 | 9.82 | 6.33 | 12.4 | 2.36 | 9.17 | 9.95
18 | YSNKLYYQLEQ [PDPR_Y109] | 0.826 | 1.12 | 0.957 | 1.09 | 2.27 | 3.14 | 6.24 | 3.28 | 8.28 | 0.82 | 7.22 | 1.76 | 2.11 | 1.43 | 2.08 | 0.81
19 | YSPCDYQPCLA [TNS1_Y798_Y796C] | 0.874 | 2.46 | 0.908 | 0.966 | 0.838 | 13.9 | 3.24 | 1.62 | 4.87 | 0.827 | 3.25 | 1.06 | 9.31 | 2.78 | 1.14 | 2.44
20 | YYLGKYLQEVL [KLB_Y910] | 0.877 | 0.686 | 0.66 | 1.34 | 0.565 | 0.506 | 1.42 | 0.523 | 3.66 | 0.902 | 2.92 | 1.3 | 0.593 | 1.2 | 0.568 | 0.523

Source: the supplement of paper PMC10065799, “High-throughput profiling of sequence recognition by tyrosine kinases and SH2 domains using bacterial peptide display” (eLife, 2023)
